The chains are these.
T1: ARM repeat domain of human β-catenin (residues 134–671) (human, UniProt P35222 134-671)
T1 construct: β-catenin, human, ARM repeat domain, residues 134–671; Plasmid was a gift from W.I. Weis; source: E. coli C41, purified (glutathione-Sepharose 4B, thrombin cleavage on resin, Mono-Q)
T1 sequence (looked up): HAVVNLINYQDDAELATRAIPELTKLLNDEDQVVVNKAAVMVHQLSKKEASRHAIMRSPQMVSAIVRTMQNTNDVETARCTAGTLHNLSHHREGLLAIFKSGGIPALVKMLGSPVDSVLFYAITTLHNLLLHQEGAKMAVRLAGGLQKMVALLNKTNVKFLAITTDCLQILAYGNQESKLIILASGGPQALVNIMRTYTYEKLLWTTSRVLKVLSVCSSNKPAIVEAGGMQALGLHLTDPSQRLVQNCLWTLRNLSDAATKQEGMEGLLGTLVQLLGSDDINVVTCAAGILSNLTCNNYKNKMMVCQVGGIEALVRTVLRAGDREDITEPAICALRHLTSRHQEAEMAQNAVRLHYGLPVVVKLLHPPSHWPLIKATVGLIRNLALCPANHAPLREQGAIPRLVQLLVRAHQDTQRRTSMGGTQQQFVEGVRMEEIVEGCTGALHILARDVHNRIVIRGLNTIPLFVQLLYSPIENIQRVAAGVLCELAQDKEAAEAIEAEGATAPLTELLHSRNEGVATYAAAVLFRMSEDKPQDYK

B1: TCF7L2 (1–54) S31C F21A, fluorescein-labelled (domain or fragment, UniProt Q9NQB0 1-54, looked up)
chain: MPQLNGGGGDDLGANDELISAKDEGEQEEKC(fluorescein maleimide)SENSSAERDLADVKSSLVNESET
notes: One extra serine is left behind after thrombin cleavage of the tag; source: E. coli C41, purified (Ni-NTA, thrombin cleavage, Superdex 75), labelled with fluorescein maleimide
B2: TCF7L2 (1–54) S31C I19A, fluorescein-labelled (domain or fragment, UniProt Q9NQB0 1-54, looked up)
chain: MPQLNGGGGDDLGANDELASFKDEGEQEEKC(fluorescein maleimide)SENSSAERDLADVKSSLVNESET
notes: One extra serine is left behind after thrombin cleavage of the tag; also called TCF7L2 I19A; source: E. coli C41, purified (Ni-NTA, thrombin cleavage, Superdex 75), labelled with fluorescein maleimide
B3: TCF7L2 (1–54) S31C V44A, fluorescein-labelled (domain or fragment, UniProt Q9NQB0 1-54, looked up)
chain: MPQLNGGGGDDLGANDELISFKDEGEQEEKC(fluorescein maleimide)SENSSAERDLADAKSSLVNESET
notes: as for B1
B4: TCF7L2 (1–54) S31C L41A, fluorescein-labelled (domain or fragment, UniProt Q9NQB0 1-54, looked up)
chain: MPQLNGGGGDDLGANDELISFKDEGEQEEKC(fluorescein maleimide)SENSSAERDAADVKSSLVNESET
notes: as for B1
B5: TCF7L2 (1–54), wild type, unlabelled (domain or fragment, UniProt Q9NQB0 1-54, looked up)
chain: MPQLNGGGGDDLGANDELISFKDEGEQEEKSSENSSAERDLADVKSSLVNESET
notes: also called wild-type TCF7L2 (1–54); source: E. coli C41, purified (Ni-NTA, thrombin cleavage, Superdex 75)
B6: TCF7L2 (1–54) S31C, unlabelled (domain or fragment, UniProt Q9NQB0 1-54, looked up)
chain: B5 chain with S31C
notes: One extra serine is left behind after thrombin cleavage of the tag; also called WT; pseudo-wild type; source: E. coli C41, purified (Ni-NTA, thrombin cleavage, Superdex 75)
B7: TCF7L2 (1–54) S31C L12A, fluorescein-labelled (domain or fragment, UniProt Q9NQB0 1-54, looked up)
chain: MPQLNGGGGDDAGANDELISFKDEGEQEEKC(fluorescein maleimide)SENSSAERDLADVKSSLVNESET
notes: as for B1
B8: TCF7L2 (1–54) S31C E29A, fluorescein-labelled (domain or fragment, UniProt Q9NQB0 1-54, looked up)
chain: MPQLNGGGGDDLGANDELISFKDEGEQEAKC(fluorescein maleimide)SENSSAERDLADVKSSLVNESET
notes: as for B1
B9: TCF7L2 (1–54) S31C E28A, fluorescein-labelled (domain or fragment, UniProt Q9NQB0 1-54, looked up)
chain: MPQLNGGGGDDLGANDELISFKDEGEQAEKC(fluorescein maleimide)SENSSAERDLADVKSSLVNESET
notes: as for B1
B10: TCF7L2 (1–54) S31C N15A, fluorescein-labelled (domain or fragment, UniProt Q9NQB0 1-54, looked up)
chain: MPQLNGGGGDDLGAADELISFKDEGEQEEKC(fluorescein maleimide)SENSSAERDLADVKSSLVNESET
notes: as for B1
B11: TCF7L2 (1–54) S31C L48A, fluorescein-labelled (domain or fragment, UniProt Q9NQB0 1-54, looked up)
chain: MPQLNGGGGDDLGANDELISFKDEGEQEEKC(fluorescein maleimide)SENSSAERDLADVKSSAVNESET
notes: as for B1
B12: TCF7L2 (1–54) S31C E26A, fluorescein-labelled (domain or fragment, UniProt Q9NQB0 1-54, looked up)
chain: MPQLNGGGGDDLGANDELISFKDEGAQEEKC(fluorescein maleimide)SENSSAERDLADVKSSLVNESET
notes: as for B1
B13: TCF7L2 (1–54) S31C E38A, fluorescein-labelled (domain or fragment, UniProt Q9NQB0 1-54, looked up)
chain: MPQLNGGGGDDLGANDELISFKDEGEQEEKC(fluorescein maleimide)SENSSAARDLADVKSSLVNESET
notes: as for B1
B14: TCF7L2 (1–54) S31C E24A, fluorescein-labelled (domain or fragment, UniProt Q9NQB0 1-54, looked up)
chain: MPQLNGGGGDDLGANDELISFKDAGEQEEKC(fluorescein maleimide)SENSSAERDLADVKSSLVNESET
notes: as for B1
B15: TCF7L2 (1–54) S31C E24A E29A, fluorescein-labelled (domain or fragment, UniProt Q9NQB0 1-54, looked up)
chain: MPQLNGGGGDDLGANDELISFKDAGEQEAKC(fluorescein maleimide)SENSSAERDLADVKSSLVNESET
notes: One extra serine is left behind after thrombin cleavage of the tag; also called double mutant; source: E. coli C41, purified (Ni-NTA, thrombin cleavage, Superdex 75), labelled with fluorescein maleimide
B16: TCF7L2 (1–54) S31C K45A, fluorescein-labelled (domain or fragment, UniProt Q9NQB0 1-54, looked up)
chain: MPQLNGGGGDDLGANDELISFKDEGEQEEKC(fluorescein maleimide)SENSSAERDLADVASSLVNESET
notes: as for B1
B17: TCF7L2 (1–54) S31C, labelled with fluorescein maleimide at Cys31 (domain or fragment, UniProt Q9NQB0 1-54, looked up)
chain: MPQLNGGGGDDLGANDELISFKDEGEQEEKC(fluorescein maleimide)SENSSAERDLADVKSSLVNESET
notes: One extra serine is left behind after thrombin cleavage of the tag; also called fluorescein-labelled WT; fluorescent-labelled WT TCF7L2 (1–54); source: E. coli C41, purified (Ni-NTA, thrombin cleavage, Superdex 75), labelled with fluorescein maleimide
B18: TCF7L2 (1–54) S31C D23A, fluorescein-labelled (domain or fragment, UniProt Q9NQB0 1-54, looked up)
chain: MPQLNGGGGDDLGANDELISFKAEGEQEEKC(fluorescein maleimide)SENSSAERDLADVKSSLVNESET
notes: as for B1
B19: TCF7L2 (1–54) S31C D23A E24A E26A E28A E29A (5X), fluorescein-labelled (domain or fragment, UniProt Q9NQB0 1-54, looked up)
chain: MPQLNGGGGDDLGANDELISFKAAGAQAAKC(fluorescein maleimide)SENSSAERDLADVKSSLVNESET
notes: One extra serine is left behind after thrombin cleavage of the tag; also called quintuple mutant; 5X variant; source: E. coli C41, purified (Ni-NTA, thrombin cleavage, Superdex 75), labelled with fluorescein maleimide
B20: TCF7L2 (1–54) S31C E17A, fluorescein-labelled (domain or fragment, UniProt Q9NQB0 1-54, looked up)
chain: MPQLNGGGGDDLGANDALISFKDEGEQEEKC(fluorescein maleimide)SENSSAERDLADVKSSLVNESET
notes: as for B1

Substitutions are numbered along the chain they refer to. Names and notes keep the numbering of the source. No end group written: not given here.

The target of one test is T1, ARM repeat domain of human β-catenin …. In words: stopped-flow fluorescence kinetics (dissociation); pre-formed 1:1 complex (200 nM) of labelled TCF7L2 and β-catenin mixed 1:1 with 50-times molar excess of unlabelled TCF7L2 (10 µM); PBS, 1 mM DTT, 15 °C; fitted to sums of exponential phases. The conditions noted are these: both partners purified.
Regarding B1, the “koff,major (major slow phase of biphasic dissociation)” value (“koff,major” for short) was found to be 0.0258 ± 2 s⁻¹ and the “koff,minor (minor fast phase of biphasic dissociation)” value (from here on “koff,minor”) worked out at 0.423 ± 15 s⁻¹.
On to B2, for which the “koff,major” value came to 0.011 ± 0.5 s⁻¹ and the “koff,minor” value was 0.207 ± 10 s⁻¹.
Taken in the same sequence, the figures for B3 were 0.0742 ± 8 s⁻¹ and 0.498 ± 70 s⁻¹.
For B4, the “koff,major” value came out at 0.0993 ± 17 s⁻¹ and the “koff,minor” value turned out to be 0.616 ± 111 s⁻¹.

A further test shares this target. Briefly: ITC; β-catenin 2–4 µM in the cell, TCF7L2 18–40 µM in the syringe; PBS, 1 mM DTT, 30 °C; one-site binding fit. The conditions noted are these: both partners purified. (Isothermal titration calorimetry measures the heat released or taken up as one component is titrated into another.)
For B5, the binding result is on record as “binds”.
Still for that read-out and setting: next, B6: “binds”.

The next test shares this target. Briefly: fluorescence spectroscopy kinetics (dissociation, fluorimeter); pre-formed 1:1 complex of labelled TCF7L2 and β-catenin mixed 1:1 with 50-times molar excess of unlabelled TCF7L2; PBS, 1 mM DTT, 15 °C; fitted to sums of exponential phases. The conditions noted are these: both partners purified.
Regarding B7, the “koff,major” value was 0.000977 ± 0.75 s⁻¹ and the “koff,minor” value amounted to 0.00264 ± 0.2 s⁻¹.
Taken in the same sequence, the figures for B8 were 0.000897 ± 0.44 s⁻¹ and 0.00245 ± 0.21 s⁻¹.
On to B9, for which the “koff,major” value came out at 0.000496 ± 0.35 s⁻¹ and the “koff,minor” value stood at 0.00116 ± 0.28 s⁻¹.
Taken in the same sequence, the figures for B10 were 0.000442 ± 0.15 s⁻¹ and 0.00365 ± 0.83 s⁻¹.
As for B11, the “koff,major” value was 0.00132 ± 0.1 s⁻¹ and the “koff,minor” value is 0.00424 ± 0.13 s⁻¹.
For the molecule B12, the “koff,major” value is 0.000474 ± 0.3 s⁻¹ and the “koff,minor” value was 0.00166 ± 0.16 s⁻¹.
The corresponding values for B13 are 0.000539 ± 0.5 s⁻¹ and 0.00261 ± 0.28 s⁻¹.
Consider B14, for which the “koff,major” value stood at 0.000503 ± 0.4 s⁻¹ and the “koff,minor” value stood at 0.00153 ± 0.21 s⁻¹.
Take B15: the “koff,major” value stood at 0.000425 ± 0.29 s⁻¹ and the “koff,minor” value came out at 0.00173 ± 0.14 s⁻¹.
The corresponding values for B16 are 0.00219 ± 0.4 s⁻¹ and 0.015 ± 1.3 s⁻¹.
For the molecule B17, the “koff,major” value is 0.000573 ± 0.4 s⁻¹ and the “koff,minor” value amounted to 0.00152 ± 0.28 s⁻¹.
Turning to B18, the “koff,major” value came out at 0.0003 ± 0.16 s⁻¹ and the “koff,minor” value came out at 0.00239 ± 0.7 s⁻¹.
The corresponding values for B19 are 0.000295 ± 0.23 s⁻¹ and 0.00234 ± 0.33 s⁻¹.
As to B20, the “koff,major” value was found to be 0.00891 ± 2.9 s⁻¹ and the “koff,minor” value was determined as 0.0283 ± 1.9 s⁻¹.

Another test has the same target. In words: stopped-flow fluorescence kinetics (association); 10 nM fluorescein-labelled TCF7L2 mixed 1:1 with 100–1000 nM unlabelled β-catenin, pseudo-first-order; PBS, 1 mM DTT, 15 °C; kon from the linear fit of kobs against β-catenin concentration. The conditions noted are these: both partners purified.
For B7, the kon (as a rule, the rate constant with which the complex forms) was 7.19e+07 ± 0.13 M⁻¹ s⁻¹.
Still for that read-out and setting: next, B8: 5.73e+07 ± 0.43 M⁻¹ s⁻¹; B9: 5.84e+07 ± 0.35 M⁻¹ s⁻¹; B1: 4.82e+07 ± 0.17 M⁻¹ s⁻¹.
The molecule B2 returned an association rate constant (kon) of 7.04e+07 ± 0.52 M⁻¹ s⁻¹.
On the same count and under the same terms, next, B3: 5.05e+07 ± 0.46 M⁻¹ s⁻¹; B10: 6.25e+07 ± 0.23 M⁻¹ s⁻¹; B4: 5.95e+07 ± 0.24 M⁻¹ s⁻¹.
B11 returned a kon of 5.67e+07 ± 0.6 M⁻¹ s⁻¹.
As to B12, the kon came to 5.59e+07 ± 0.22 M⁻¹ s⁻¹.
On the same count and under the same terms, next, B13: 6.2e+07 ± 0.19 M⁻¹ s⁻¹.
Turning to B14, the kon worked out at 6.05e+07 ± 0.12 M⁻¹ s⁻¹.
For the molecule B15, the association rate constant (kon) stood at 6.13e+07 ± 0.34 M⁻¹ s⁻¹.
B16: the on-rate constant (kon) came to 1.031e+08 ± 0.19 M⁻¹ s⁻¹. This kon is about 1.7-fold higher than that of the molecule before.
As to B17, the kon worked out at 7.33e+07 ± 0.14 M⁻¹ s⁻¹.
On the same count and under the same terms, next, B18: 5.31e+07 ± 0.25 M⁻¹ s⁻¹; B19: 4.26e+07 ± 0.17 M⁻¹ s⁻¹; B20: 6.3e+07 ± 0.42 M⁻¹ s⁻¹.

Source of the values: article PMC8228192, “Parallel and Sequential Pathways of Molecular Recognition of a Tandem-Repeat Protein and Its Intrinsically Disordered Binding Partner” (Biomolecules, 2021).
